Assay results from patent US20240218074A1 (AKESO BIOPHARMA, published 2024).

T1: human CD73 expressed on cells (human PBMC CD8+ T cells and CD19+ B cells); endogenous CD73 of MDA-MB-231 and … (human, UniProt P21589 27-549)
T1 construct: whole, on cells; also called NT5E; ecto-5'-nucleotidase
T1 sequence (looked up): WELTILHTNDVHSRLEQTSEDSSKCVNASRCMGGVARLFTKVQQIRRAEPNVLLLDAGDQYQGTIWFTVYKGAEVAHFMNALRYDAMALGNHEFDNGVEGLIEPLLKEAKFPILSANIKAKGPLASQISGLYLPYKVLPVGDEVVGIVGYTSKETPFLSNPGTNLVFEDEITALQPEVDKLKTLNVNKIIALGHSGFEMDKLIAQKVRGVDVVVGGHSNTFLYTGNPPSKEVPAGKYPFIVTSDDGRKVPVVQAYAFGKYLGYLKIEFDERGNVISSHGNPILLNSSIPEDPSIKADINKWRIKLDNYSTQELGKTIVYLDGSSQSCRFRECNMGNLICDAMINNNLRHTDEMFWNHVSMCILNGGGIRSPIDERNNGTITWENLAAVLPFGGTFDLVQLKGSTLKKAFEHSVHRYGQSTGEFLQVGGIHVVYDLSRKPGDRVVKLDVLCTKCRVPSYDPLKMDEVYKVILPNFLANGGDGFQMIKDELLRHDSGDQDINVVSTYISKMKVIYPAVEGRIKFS

T2: human NT5E-Biotin (NT5E is GenbankID: NP_002517.1, position: 1-552) (human, UniProt P21589 27-552, biotin label (site not stated))
T2 construct: range 1-552; Recombinant soluble antigen made by Akeso (batch 20160505), biotinylated and captured on streptavidin; also called HNT5E-Biotin; human NT5E (1-552)-Biotin
T2 sequence (looked up): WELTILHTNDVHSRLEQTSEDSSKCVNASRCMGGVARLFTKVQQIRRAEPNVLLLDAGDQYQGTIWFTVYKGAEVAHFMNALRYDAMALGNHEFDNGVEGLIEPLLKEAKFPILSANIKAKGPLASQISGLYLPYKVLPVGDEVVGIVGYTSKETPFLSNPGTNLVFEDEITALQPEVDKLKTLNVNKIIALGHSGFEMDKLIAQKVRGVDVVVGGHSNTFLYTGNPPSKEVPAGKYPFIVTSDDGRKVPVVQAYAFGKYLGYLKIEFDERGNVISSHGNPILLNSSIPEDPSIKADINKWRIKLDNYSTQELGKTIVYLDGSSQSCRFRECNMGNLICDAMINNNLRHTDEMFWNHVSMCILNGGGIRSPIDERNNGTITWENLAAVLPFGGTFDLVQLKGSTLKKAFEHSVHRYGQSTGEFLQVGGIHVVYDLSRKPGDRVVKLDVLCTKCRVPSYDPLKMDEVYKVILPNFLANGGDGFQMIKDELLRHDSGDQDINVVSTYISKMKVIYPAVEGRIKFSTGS

B1: control antibody CPI-006 (Mupadolimab) (antibody, human IgG1, kappa, N297Q, V domains shown)
VH: QVQLVQSGAEVEKPGASVKVSCKASGYTFTSYWITWVRQAPGQGLEWMGDIYPGSGNTNYNEKFKTRVTITADKSTSTAYMELSSLRSEDTAVYYCAKEGGLTTEDYALDYWGQGTLVTVSS
VL: EIVLTQSPATLSLSPGERATLSCRASKNVSTSGYSYMHWYQQKPGQAPRLLIYLASNLESGIPPRFSGSGYGTDFTLTINNIESEDAAYYFCQHSRELPFTFGQGTKVEIKR
notes: made by Akeso
B2: murine anti-CD73 monoclonal antibody 19F3 (antibody, V domains shown)
VH: EVQLQQSGPELVKPGASMRMSCKASGYSFTGYTMNWVKQSHGKNLEWIGLINPYNAGTSYNQKFKGKATLTVDKSSSTAYMELLSLTSEDSAVYYCARSEYRYGGDYFDYWGQGTTLTVSS
VL: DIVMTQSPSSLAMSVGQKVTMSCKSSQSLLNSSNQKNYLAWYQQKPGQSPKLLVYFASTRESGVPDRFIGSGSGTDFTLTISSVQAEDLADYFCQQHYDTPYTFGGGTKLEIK
notes: Mouse hybridoma antibody purified on protein A; also called murine antibody 19F3; Murine 19F3

Columns and labels:
[1] = biological target: T1, human CD73 expressed on cells (human …); experiment: FACS on human PBMC, binding to CD19+ B cells
Description: (§1) The experimental steps are as follows: The PBMCs were resuscitated, centrifuged at 1,200 rpm for 5 min, and the supernatant was discarded, resuspended in complete medium, counted, and incubated overnight at 37° C. The solution was centrifuged at 1,200 rpm for 5 min, cells were harvested, diluted antibody solution was added at 100 μL/well, mixed well, and incubated in a refrigerator at 4° C. for 1 hour. The solution was centrifuged at 750×g for 5 min, the supernatant was discarded, and washed 2 times with 200 μL of 1×PBS (containing 1% BSA and 0.05% NaN3). Anti-human CD3-FITC (2 μL/100 μL), anti-human CD19-PE (2 μL/100 μL) (Biolegend, article number: 302254), anti-human CD8-PerCP Cy5.5 (1 μL/100 μL), anti-human IgG Fc-AF647 (1:300) (Southern Biotech, catalog number: 9040-31) were added, and incubated at 4° C. for 30 minutes. The solution was centrifuged at 750×g for 5 min, the supernatant was discarded, washed once with 200 μL of 1×PBS (including 1% BSA and 0.05% NaN3); resuspended with 300 μL of 1×PBS (including 1% BSA and 0.05% NaN3), transferred to flow tubes, and loaded for testing.

[2] = biological target: T1, human CD73 expressed on cells (human …); experiment: FACS on human PBMC, binding to CD8+ T cells
Description: as §1

[3] = biological target: T1, human CD73 expressed on cells (human …); experiment: cell-based or functional assay
[4] = biological target: T2, human NT5E-Biotin (NT5E is GenbankID: …); experiment: ELISA on streptavidin-captured human NT5E-Biotin; HRP goat anti-mouse IgG
Description: Experimental steps: After coating the microplate with streptavidin at 2 μg/mL, the microplate was incubated at 4° C. for 12 hours. After the end of incubation, the antigen-coated microplate was rinsed once using PBST, and then blocked for 2 hours using 1% BSA PBST solution as the microplate blocking buffer. After the end of blocking, the microplate was washed three times using PBST. […] The antibody serially diluted with PBST solution was added to the microplate wells. […] The microplate with the antibody to be tested was incubated at 37° C. for 30 minutes, and the microplate was washed three times using PBST after the incubation was completed. […] The microplate was immediately placed into the microplate reader, and the 450 nm optical wavelength was selected to read the OD value of each well of the microplate. Data were analyzed and processed using SoftMax Pro 6.2.1 software.
Curve fitting was performed using the antibody concentration as the abscissa and the absorbance value as the ordinate, and the binding EC₅₀ of the antibody was calculated.

| Binder | EC50 [1] | EC50 [2] | Inhibition rate EC50 (nM): enzyme activity of CD73 expressed by human PBMC membrane (AMP/ATP CellTiter-Glo read-out) [3] | EC50 [4] |
| --- | --- | --- | --- | --- |
| B1 | 0.108 nM | 0.288 nM | 0.226 nM | – |
| B2 | – | – | – | 0.018 nM |
